We go through 2 molecules from patent publication US20260139049A1 (PEDIATRIC IMMUNITY AND HEALTHCARE GUANGZHOU BIOTECHNOLOGY, published 2026).

One assay concerns the target T1, human CLDN9 (human, UniProt O95484 1-217).
T1 construct: whole, on cells; also called HEK293T-CLDN9
T1 sequence (looked up): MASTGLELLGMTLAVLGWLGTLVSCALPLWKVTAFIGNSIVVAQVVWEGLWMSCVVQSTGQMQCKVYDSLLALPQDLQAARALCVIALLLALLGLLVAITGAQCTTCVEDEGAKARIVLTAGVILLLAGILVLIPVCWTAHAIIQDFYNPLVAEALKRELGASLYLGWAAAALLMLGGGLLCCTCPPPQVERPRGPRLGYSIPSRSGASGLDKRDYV
The assay can be described thus: FACS on 293T-CLDN9 cells.

For assay [1], the target named is T2, mouse CLDN6 (mouse, UniProt Q9Z262 1-219).
T2 construct: whole, on cells; also called CHO-K1-Mouse CLDN6
T2 sequence (looked up): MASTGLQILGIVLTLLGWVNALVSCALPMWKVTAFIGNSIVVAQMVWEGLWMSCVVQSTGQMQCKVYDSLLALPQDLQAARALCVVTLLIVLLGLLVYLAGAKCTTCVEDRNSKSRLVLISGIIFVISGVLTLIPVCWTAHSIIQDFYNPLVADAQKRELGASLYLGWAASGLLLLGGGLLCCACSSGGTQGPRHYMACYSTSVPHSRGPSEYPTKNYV
The assay is described as follows: FACS on CHO-K1-Mouse CLDN6 cells (FIG. 15).

Assay [2] concerns the target T2, mouse CLDN6. The assay can be described thus: FACS on CHO-K1-Mouse CLDN6 cells.
Assay [3] concerns the target T3, monkey CLDN6 (Cyno CLDN6) (monkey (Cyno)).
T3 construct: whole, on cells; also called CHO-K1-Cyno CLDN6
The assay can be described thus: FACS on CHO-K1-Cyno CLDN6 cells.

Assay [4] addresses T4, human CLDN6 (human, UniProt P56747 1-220).
T4 construct: whole, on cells; four-transmembrane protein; also called claudin-6; HEK293T-CLDN6
T4 sequence (looked up): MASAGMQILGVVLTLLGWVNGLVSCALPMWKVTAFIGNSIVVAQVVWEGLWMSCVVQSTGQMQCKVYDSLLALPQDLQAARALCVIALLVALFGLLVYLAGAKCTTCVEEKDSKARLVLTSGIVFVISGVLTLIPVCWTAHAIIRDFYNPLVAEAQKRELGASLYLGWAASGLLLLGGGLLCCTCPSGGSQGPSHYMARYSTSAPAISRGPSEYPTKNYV
The assay is described as follows: FACS on HepG2 tumour cells; target on the cells taken as CLDN6. The method, then: (§1) The specific binding of a chimeric antibody to a tumor cell was detected by FACS, and an EC50 value was calculated accordingly to evaluate an inhibitory effect of the chimeric antibody on the tumor cell.
(§2) 50 μL of an antibody to be tested was added to a 96-well plate, then 1×10⁵ cells were added to each well, and incubation was conducted at 4° C. for 1 h. Cells were washed three times with PBS. […] Finally, cells were washed three times with PBS, and signals were read using FACS. A binding capacity of the antibody to each tumor cell was analyzed based on detection data.

The target of assay [5] is T4, human CLDN6. The assay can be described thus: FACS on PA-1 tumour cells; target on the cells taken as CLDN6. The method, then:
as §1, §2

Assay [6] has as its target T4, human CLDN6. The assay can be described thus: FACS on HEK293T-CLDN6 cells. The procedure: (§3) To detect a binding capacity of a chimeric or humanized antibody to CLDN6, a CLDN6-expressing cell line HEK293T-CLDN6 and a CLDN6-negative control cell line HEK293T were washed three times with PBS. 1×10⁵ test cells and 50 μL of an antibody solution to be tested were added to a 96-well plate, and incubated at 4° C. for 1 h. The cells were then washed three times with PBS. […] Finally, cells were washed three times with PBS, and signals were read using FACS.

Assay [7] has as its target T4, human CLDN6. The assay is described as follows: FACS on HEK293T-CLDN6 cells. The method, then: as §3
An EC50 value (a concentration of an antibody that binds to half of binding sites at equilibrium) is calculated through nonlinear regression.
The source holds these as a separate data set.

B1: 20A3-2A7 (antibody, human IgG1, kappa, V domains shown)
VH: QAYLQQSGAELVRSGASVKMSCKASGYTFTSYNMHWVKQTPGQGLEWIGYIYPGNGGTNYNQKFKGKATLTADTSSSTAYMQISSLTSEDSAVYFCARWKYYDKTTHYALDYWGQGTLVTVSS
VL: DIVLTQSPASLAVSLGQWATISCRASKSVSTSGYSYIHWHQQKPGQPPKLLIYLASNLESGVPARFSGSGSGTDFTLNIHPVEEEDAATYYCHHSRELPFTFGSGTKLEIKR
notes: chimeric: murine variable regions on human IgG1 constant regions
Take B1: the binding result in the assay with human CLDN9 and with mouse CLDN6 [1] was “binds” each time.

B2: 47A5B10 (antibody, human IgG1, kappa, V domains shown)
VH: QGQLQQSGAELARPGASVKLSCKASGYTFTSYGISWVKQRTGQGLEWIGEIYPRSGNTYHNEKFKGKATLTADKSSSTAYMELRSLTSEDSAVYFCARSSYDYYAMDYWGQGTSVTVSS
VL: EIVVTQSPALMAASPGEKVTITCSVSSIISSSKLHWYQQKSETSPKPWIYGTSNLASGVPIRFSGSGSGTSYSLTISSMEAEDAATYYCQQWSSYPLTFGAGTKLELKR
notes: as for B1
On to B2, for which the EC50 is 0.633 µg/mL with mouse CLDN6 [2]; 0.343 µg/mL in assay [3]; 1.38 µg/mL in the assay with human CLDN6 [4]; 0.737 µg/mL in the assay with human CLDN6 [5]; 0.674 µg/mL with human CLDN6 [7]. This molecule also returned an FACS signal in the assay with human CLDN6 [6] of 33000.
